Here are results for one protein from patent publication US20110289632A1, “METHYLKETONE SYNTHASE, PRODUCTION OF METHYLKETONES IN PLANTS AND BACTERIA” (The Regents of the University of Michigan, priority 2009, published 2011).

Substrate in this series: CCCCCCCCCCCC(=O)CC(=O)O
Nature of the series: Steady-state kinetic decarboxylase assay (3-ketomyristic acid to 2-tridecanone, GC-MS). Type of series: biochemical, Solanum habrochaites f glabratum. The conditions noted are these: other: ShMKS1 decarboxylase, substrate 5 μM to 75 μM, pH 7.0, 23° C., 10 min. As to the method:
To examine the possible decarboxylase activity of ShMKS1 as well as ShMKS2 in vitro, we tested homogenous recombinant ShMKS1 and partially purified recombinant ShMKS2 proteins (without their transit peptides) for their ability to convert 3-ketomyristic acid into its 2-tridecanone decarboxylated product. […] In steady-state kinetic assays, ShMKS1 was determined to have a KM of 18.4±5.6 μM for 3-ketomyristic acid, with an apparent kcat of 227.9±24.1 min^−1.
His-tagged ShMKS1 and ShMKS2 were affinity-purified on Nickel-agarose chromatography using the protocol described in Fridman et al., (2005) Metabolic, genomic, and biochemical analyses of glandular trichomes from the wild tomato species Lycopersicon hirsutum identify a key enzyme in the biosynthesis of methylketones, Plant Cell 17: 1252-1267. After elution from the Nickel-agarose column, the proteins were analyzed by SDS-PAGE and ShMKS2 dialyzed against 50 mM phosphate buffer pH 6.8, 500 mM NaCl, and 1M (NH4)2SO4, and 2 mM DTT and ShMKS1 dialyzed against 12.5 mM phosphate buffer pH 6.8, 50 mM NaCl, and 2 mM DTT. ShMKS1 purity was estimated at 99%, and ShMKS2 purity was estimated at 6%.
A typical decarboxylase assay consisted of a 500 μL reaction solution containing ShMKS1 or ShMKS2 (2.5 μg), 3-ketomyristic acid (0.1 mM), and 1,3-bis(tris(hydroxymethyl)methylamino) propane—Na^+ (20 mM, pH 7.0). […]

B1: Solanum habrochaites f glabratum methylketone synthase 1 (ShMKS1), recombinant His-tagged, SEQ ID NO: 17 (Solanum habrochaites) (protein)
chain: MEKSMSPFVKKHFVLVHTAFHGAWCWYKIVALMRSSGHNVTALDLGASGINPKQALQIPNFSDYLSPLMEFMASLPANEKIILVGHALGGLAISKAMETFPEKISVAVFLSGLMPGPNIDATTVCTKAGSAVLGQLDNCVTYENGPTNPPTTLIAGPKFLATNVYHLSPIEDLALATALVRPLYLYLAEDISKEVVLSSKRYGSVKRVFIVATENDALKKEFLKLMIEKNPPDEVKEIEGSDHVTMMSKPQQLFTTLLSIANKYK
notes: no cleavable transit peptide, 265-residue protein
A word on the Km: it is the substrate concentration at which the rate is half of its maximum. As usually defined, the kcat is the maximal rate divided by the concentration of active sites. As to B1, the Km came to 18.4 ± 5.6 µM and the kcat is 3.798 ± 0.402 s⁻¹.
